We go through 4 molecules from paper PMC6521699.

A word on the Kd: it is the free concentration of one partner at which half of the binding sites on the other are occupied at equilibrium, for simple one-to-one binding. Read a low Kd as a tighter complex.

Experiment [1] concerns the target mouse IL-2 receptor βƔc heterodimer (mouse). Nature of the experiment: SPR. Background: In SPR one partner is held on a chip, and binding of the other changes the refractive index at the surface.
Experiment [2] has as its target mouse IL-2Rβ ectodomain, biotinylated (mouse). In words: SPR.
Experiment [3] concerns the target human IL-2 receptor βƔc heterodimer (human) (UniProt P14784).
For experiment [4], the target named is mouse IL-2 receptor βƔc heterodimer (mouse).
Experiment [5] deals with human IL-2 receptor βƔc heterodimer (human) (UniProt P14784). In words: SPR.
Experiment [6] concerns the target human IL-2Rβ, biotinylated (human) (UniProt P14784). Nature of the experiment: SPR.
Experiment [7] addresses IL-2Rβγc (species not stated, Figure E3d) (not stated (human and mouse receptors made)) (UniProt P14784). Nature of the experiment: BLI.

Regarding “human interleukin-2 (from UniProt P60568 21-153) (ligand)”, the Kd in experiment [1] is 492 nM; in experiment [2] it was 8110 nM.

Neoleukin-2/15 (designed binder) showed an EC50 of STAT5 phosphorylation in IL-2Rα- (CD25-) human YT-1 NK cells in experiment [3] of 0.05 nM. Moreover, the EC50 of STAT5 phosphorylation in IL-2Rα- mouse primary T cells in experiment [4] is 0.13 nM. The Kd in experiment [5] was 18.8 nM; in experiment [6], 11.2 nM; in experiment [1], 38.4 nM; in experiment [2], 16.1 nM; in experiment [7], 6.9 nM.

Turning to “Super-2 / Superkine (from UniProt P60568 21-153) (ligand)”, the Kd in experiment [5] was 301 nM; in experiment [1], 312 nM; in experiment [2], 214 nM.

B1: mouse interleukin-2 (ligand)
chain: APTSSSTSSSTAEAQQQQQQQQQQQQHLEQLLMDLQELLSRMENYRNLKLPRMLTFKFYLPKQATELKDLQCLEDELGPLRHVLDLTQSKSFQLEDAENFISNIRVTVVKLKGSDNTFECQFDDESATVVDFLRRWIAFCQSIISTSPQ
In the case of B1, the Kd in experiment [2] amounted to 1500 nM.
